Laboratory results from patent publication US20120128626A1 (ALDERBIO, published 2012).

How the values were obtained:
Test in all cases: cell-based or functional assay
[1] = biological target: T1, Rat IL-6 (rat, UniProt P20607 25-211)
T1 sequence (looked up): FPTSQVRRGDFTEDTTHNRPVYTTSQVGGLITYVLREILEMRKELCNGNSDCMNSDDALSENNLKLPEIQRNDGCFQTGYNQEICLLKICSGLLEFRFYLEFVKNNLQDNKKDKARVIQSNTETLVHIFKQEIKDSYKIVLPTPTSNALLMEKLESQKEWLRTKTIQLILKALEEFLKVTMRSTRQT

[2] = biological target: T2, Mouse IL-6 (mouse, UniProt P08505 25-211)
T2 sequence (looked up): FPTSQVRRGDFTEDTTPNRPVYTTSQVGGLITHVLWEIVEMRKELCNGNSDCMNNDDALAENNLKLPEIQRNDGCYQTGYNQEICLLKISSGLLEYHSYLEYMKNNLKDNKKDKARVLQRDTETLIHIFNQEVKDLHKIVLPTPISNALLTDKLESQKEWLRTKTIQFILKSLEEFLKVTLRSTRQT

[3] = biological target: T3, Cynomolgus monkey IL-6 (cynomolgus monkey, UniProt P79341 28-212, limits assumed)
T3 sequence (looked up): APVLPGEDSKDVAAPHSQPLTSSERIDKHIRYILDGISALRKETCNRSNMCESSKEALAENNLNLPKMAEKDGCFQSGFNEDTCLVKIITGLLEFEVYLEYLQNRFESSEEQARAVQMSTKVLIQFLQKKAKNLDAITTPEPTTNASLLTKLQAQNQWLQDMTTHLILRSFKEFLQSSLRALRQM

[4] = biological target: Human IL-6 (human, UniProt P05231 30-212)

IC50, inhibition of IL-6-stimulated T1165 cell proliferation [1]: 2.06 nM
IC50, inhibition of IL-6-stimulated T1165 cell proliferation [2]: 1.84 nM
IC50, inhibition of IL-6-stimulated T1165 cell proliferation [3]: 0.012 nM
IC50, inhibition of IL-6-stimulated T1165 cell proliferation [4]: 0.013 nM
B1: Ab1 (antibody, human IgG1, kappa, N297A, V domains shown)
VH: EVQLVESGGGLVQPGGSLRLSCAASGFSLSNYYVTWVRQAPGKGLEWVGIIYGSDETAYATSAIGRFTISRDNSKNTLYLQMNSLRAEDTAVYYCARDDSSDWDAKFNLWGQGTLVTVSS
VL: AIQMTQSPSSLSASVGDRVTITCQASQSINNELSWYQQKPGKAPKLLIYRASTLASGVPSRFSGSGSGTDFTLTISSLQPDDFATYYCQQGYSLRNIDNAFGGGTKVEIKR
